US20200199241A1 (Chugai, published 2020)
Substitutions are numbered along the chain they refer to. Names and notes keep the numbering of the source.

T1: FcγRIIa type R (human, UniProt P12318 36-217)
T1 construct: also called FcγRIIaR; FcγRIIa(R)
T1 chain: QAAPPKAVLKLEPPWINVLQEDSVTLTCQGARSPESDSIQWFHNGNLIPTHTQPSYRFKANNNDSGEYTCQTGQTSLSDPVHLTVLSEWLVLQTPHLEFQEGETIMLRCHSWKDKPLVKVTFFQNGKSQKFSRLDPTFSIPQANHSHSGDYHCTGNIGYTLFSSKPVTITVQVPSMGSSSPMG

T2: FcγRIIa type H (human, UniProt P12318 36-217)
T2 construct: also called FcγRIIaH; FcγRIIa(H)
T2 sequence: T1 chain with R133H

T3: FcγRIIb (human, UniProt P31994 43-217, limits assumed)
T3 construct: also called FcγIIB; CD32
T3 sequence: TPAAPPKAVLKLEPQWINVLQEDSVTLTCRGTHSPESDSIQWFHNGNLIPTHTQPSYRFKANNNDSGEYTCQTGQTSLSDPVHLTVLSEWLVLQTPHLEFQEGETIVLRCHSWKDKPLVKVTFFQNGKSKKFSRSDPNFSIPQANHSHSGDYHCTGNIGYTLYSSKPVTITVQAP

T4: FcγRIIa type H (human, UniProt P12318 36-217)
T4 construct: also called FcγRIIaH; FcγRIIH
T4 sequence: T1 chain with R133H

T5: FcγRIIb (human, UniProt P31994 43-217, limits assumed)
T5 construct: also called FcgRIIb; FcγIIB
T5 sequence: T3 sequence

T6: human FcγRIIa type R (human, UniProt P12318 36-217)
T6 construct: also called FcγRIIaR; FcγRIIa(R)
T6 chain: T1 chain

T7: human FcγRIIa type H (human, UniProt P12318 36-217)
T7 construct: also called FcγRIIaH; FcγRIIa(H)
T7 sequence: T1 chain with R133H

T8: human FcγRIIb (human, UniProt P31994 43-217, limits assumed)
T8 construct: also called FcγIIB
T8 sequence: T3 sequence

B1: IL6R-BP198/IL6R-L (antibody, human IgG1)
heavy: QVQLQESGPGLVKPSETLSLTCAVSGHSISHDHAWSWVRQPPGEGLEWIGFISYSGITNYNPSLQGRVTISRDNSKNTLYLQMNSLRAEDTAVYYCARSLARTTAMDYWGEGTLVTVSSASTKGPSVFPLAPSSKSTSGGTAALGCLVKDYFPEPVTVSWNSGALTSGVHTFPAVLQSSGLYSLSSVVTVPSSSLGTQTYICNVNHKPSNTKVDKKVEPKSCDKTHTCPPCPAPDYLGGDSVFLFPPKPKDTLMISRTPEVTCVVVDVSDEDGEVKFNWYVDGVEVHNAKTKPREEQYNSTYRVVSVLTVLHQDWLNGKEYKCKVSNAALPKPIEKTISKAKGQPREPQVYTLPPSRDELTKNQVSLTCLVKGFYPSDIAVEWESNGQPENNYKTTPPVLDSDGSFFLYSKLTVDKSRWQQGNVFSCSVMHEALHNHYTQESLSLSP
light: DIQMTQSPSSLSASVGDRVTITCRASQDISSYLNWYQQKPGKAPKLLIYYTSRLHSGVPSRFSGSGSGTDFTFTISSLQPEDIATYYCQQGNTLPYTFGQGTKVEIK
notes: Anti-IL-6R human IgG1 variant; copies: 2 + 2
B2: IL6R-BP201/IL6R-L (antibody, human IgG1)
heavy: B1 heavy with Y236L, G239D, D270H, A328K, K332R
light: B1 light
notes: as for B1
B3: IL6R-BP202/IL6R-L (antibody, human IgG1)
heavy: B1 heavy with D235E, Y236L, G239D, D270H, K332R
light: B1 light
notes: as for B1
B4: IL6R-BP212/IL6R-L (antibody, human IgG1)
heavy: B1 heavy with Y236L, Y298D, A328K, K332R
light: B1 light
notes: as for B1
B5: IL6R-BP205/IL6R-L (antibody, human IgG1)
heavy: B1 heavy with Y236L, D270H, Y298D, A328K, K332R
light: B1 light
notes: as for B1
B6: IL6R-BP207/IL6R-L (antibody, human IgG1)
heavy: B1 heavy with Y236L, D270H, G273P, A328K, K332R
light: B1 light
notes: as for B1
B7: IL6R-BP199/IL6R-L (antibody, human IgG1)
heavy: B1 heavy with Y236L, D270H, G273P, A328D, K332R
light: B1 light
notes: as for B1
B8: IL6R-BP193/IL6R-L (antibody, human IgG1)
heavy: B1 heavy with Y236L, A328K
light: B1 light
notes: as for B1
B9: IL6R-BP210/IL6R-L (antibody, human IgG1)
heavy: B1 heavy with D235E, Y236L, G239D, A328K, K332R
light: B1 light
notes: as for B1
B10: IL6R-BP204/IL6R-L (antibody, human IgG1)
heavy: B1 heavy with Y236L, D270H, K332R
light: B1 light
notes: as for B1
B11: IL6R-BP192/IL6R-L (antibody, human IgG1)
heavy: B1 heavy with Y236L, Y298D, A328K
light: B1 light
notes: as for B1
B12: IL6R-2B002/IL6R-L (antibody, human IgG1)
heavy: B1 heavy with Y236L, D270H, G273P, A328K, K332A
light: B1 light
notes: IgG1; Fc variant of IL6R-B3; copies: 2 + 2
B13: IL6R-BP142/IL6R-L (antibody, human IgG1)
heavy: B1 heavy with D235E, Y236L, D270H, G273P, A328N, K332A
light: B1 light
notes: as for B12
B14: IL6R-BP136/IL6R-L (antibody, human IgG1)
heavy: B1 heavy with D235E, Y236L, D270H, G273P, K332A
light: B1 light
notes: as for B12
B15: IL6R-BP112/IL6R-L (antibody, human IgG1)
heavy: B1 heavy with D235E, Y236L, D270H, A328K, K332A
light: B1 light
notes: Alteration introduced into IL6R-B3; also called P238D/P271G
B16: IL6R-BP142/IL6R-L (antibody, human IgG1)
heavy: B1 heavy with D235E, Y236L, D270H, G273P, A328N, K332A
light: B1 light
notes: Alteration introduced into IL6R-B3; also called P238D/K326N
B17: IL6R-BP126/IL6R-L (antibody, human IgG1)
heavy: B1 heavy with D235E, Y236L, D270H, G273P, A328L, K332A
light: B1 light
notes: Alteration introduced into IL6R-B3; also called P238D/K326L
B18: IL6R-BP136/IL6R-L (antibody, human IgG1)
heavy: B1 heavy with D235E, Y236L, D270H, G273P, K332A
light: B1 light
notes: Alteration introduced into IL6R-B3; also called P238D/K326A
B19: IL6R-BP120/IL6R-L (antibody, human IgG1)
heavy: B1 heavy with D235E, Y236L, D270H, G273P, A328E, K332A
light: B1 light
notes: Alteration introduced into IL6R-B3; also called P238D/K326E
B20: IL6R-BP911/IL6R-L (antibody, human IgG1)
heavy: B1 heavy with D235E, Y236L, D270H, G273P, A328K
light: B1 light
notes: Alteration introduced into IL6R-B3; also called P238D/A330K
B21: IL6R-BP117/IL6R-L (antibody, human IgG1)
heavy: B1 heavy with D235E, Y236L, D270H, G273P, A328D, K332A
light: B1 light
notes: Alteration introduced into IL6R-B3; also called P238D/K326D

target: T9, FcγRIa (human, UniProt P12314 16-292, limits assumed); experiment: SPR (Biacore), method of Example 14
T9 construct: also called CD64
T9 sequence (P12314 16-292 limits assumed): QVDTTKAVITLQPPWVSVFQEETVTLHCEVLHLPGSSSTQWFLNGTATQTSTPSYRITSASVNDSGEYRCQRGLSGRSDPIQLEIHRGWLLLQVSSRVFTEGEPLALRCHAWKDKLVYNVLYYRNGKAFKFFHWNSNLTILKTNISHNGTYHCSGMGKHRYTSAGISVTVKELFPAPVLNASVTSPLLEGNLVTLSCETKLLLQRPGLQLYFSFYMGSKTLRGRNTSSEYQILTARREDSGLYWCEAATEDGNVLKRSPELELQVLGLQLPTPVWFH
Source text: (§1) Furthermore, KD(IIaR)/KD(IIb) and KD(IIaH)/KD(IIb) in the table respectively represent the value obtained by dividing the KD value of each variant for FcγRIIaR by the KD value of each variant for FcγRIIb, and the value obtained by dividing the KD value of each variant for FcγRIIaH by the KD value of each variant for FcγRIIb. KD(IIb) of the parent polypeptide/KD(IIb) of the altered polypeptide refers to the value obtained by dividing the KD value of the parent polypeptide for FcγRIIb by the KD value of each variant for FcγRIIb.

| Kd | Binder |
| --- | --- |
| 11 nM | B1 |
| 51 nM | B2 |
| 95 nM | B3 |
| 5.2 nM | B4 |
| 7.7 nM | B5 |
| 22 nM | B6 |
| 6.4 nM | B7 |
| 6.3 nM | B8 |
| 65 nM | B9 |
| 7.6 nM | B10 |
| 6.6 nM | B11 |

Target: T1, FcγRIIa type R
Experiment: SPR (Biacore), method of Example 14
Source text: as §1

| Kd | Binder |
| --- | --- |
| 840 nM | B2 |
| 1200 nM | B3 |
| 3500 nM | B4 |
| 3500 nM | B5 |
| 19000 nM | B6 |
| 1000 nM | B9 |
| 4500 nM | B10 |
| 2600 nM | B11 |

target: T2, FcγRIIa type H; experiment: SPR (Biacore), method of Example 14
Source text: as §1

| Kd | Binder |
| --- | --- |
| 20000 nM | B1 |
| 69000 nM | B2 |
| 92000 nM | B3 |
| 22000 nM | B4 |
| 28000 nM | B5 |
| 29000 nM | B6 |
| 26000 nM | B7 |
| 25000 nM | B8 |
| 95000 nM | B9 |
| 21000 nM | B10 |
| 32000 nM | B11 |

target: T3, FcγRIIb; experiment: SPR (Biacore), method of Example 14
Source text: as §1

| Kd | Binder |
| --- | --- |
| 200 nM | B1 |
| 40 nM | B2 |
| 64 nM | B3 |
| 170 nM | B4 |
| 160 nM | B5 |
| 840 nM | B6 |
| 490 nM | B7 |
| 120 nM | B8 |
| 39 nM | B9 |
| 250 nM | B10 |
| 110 nM | B11 |

target: T10, FcγRIIIa type V (human, UniProt P08637 17-208, limits assumed); experiment: SPR (Biacore), method of Example 14
T10 construct: also called FcγRIIIaV; FcγRIIIa(V)
T10 sequence (P08637 17-208 F176V limits assumed): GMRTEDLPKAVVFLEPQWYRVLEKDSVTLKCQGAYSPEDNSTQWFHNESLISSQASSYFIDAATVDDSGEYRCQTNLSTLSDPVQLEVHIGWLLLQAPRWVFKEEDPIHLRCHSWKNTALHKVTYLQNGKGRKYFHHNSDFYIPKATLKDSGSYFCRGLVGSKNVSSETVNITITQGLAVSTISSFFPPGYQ
Source text: as §1

| Kd | Binder |
| --- | --- |
| 44000 nM | B1 |
| 65000 nM | B6 |

target: T11, FcγRIa (human, UniProt P12314 16-292, limits assumed); experiment: SPR (Biacore), FcγR over captured antibody
T11 construct: also called FcgRIa; CD64
T11 sequence (P12314 16-292 limits assumed): as the sequence (P12314 16-292 limits assumed) above

| Kd | Binder |
| --- | --- |
| 6.4 nM | B12 |
| 5.3 nM | B13 |
| 6.6 nM | B14 |

target: T4, FcγRIIa type H; experiment: SPR (Biacore), FcγR over captured antibody

| Kd | Binder |
| --- | --- |
| 86000 nM | B12 |
| 93000 nM | B13 |
| 38000 nM | B14 |

target: T5, FcγRIIb; experiment: SPR (Biacore), FcγR over captured antibody

| Kd | Binder |
| --- | --- |
| 930 nM | B12 |
| 1200 nM | B13 |
| 800 nM | B14 |

target: T12, FcγRIIIa type V (human, UniProt P08637 17-208, limits assumed); experiment: SPR (Biacore), FcγR over captured antibody
T12 construct: also called FcγRIIIaV; FcgRIIIaV
T12 sequence (P08637 other isoform, or with tags, fused parts or gaps limits assumed): as the sequence (P08637 17-208 F176V limits assumed) above, with A179S counted along it

| Kd | Binder |
| --- | --- |
| 53000 nM | B12 |
| 110000 nM | B13 |
| 69000 nM | B14 |

target: T3, FcγRIIb; experiment: ratio of SPR KD values, parent IL6R-B3/IL6R-L

| KD(IIb) of the parent polypeptide/KD(IIb) of altered polypeptide | Binder |
| --- | --- |
| 15.7 fold | B1 |
| 77.1 fold | B2 |
| 48.4 fold | B3 |
| 18.7 fold | B4 |
| 19.4 fold | B5 |
| 3.7 fold | B6 |
| 6.3 fold | B7 |
| 25.5 fold | B8 |
| 78.4 fold | B9 |
| 12.2 fold | B10 |
| 27.3 fold | B11 |

target: T13, human FcγRIa (human, UniProt P12314 16-292, limits assumed); experiment: SPR (Biacore), binding amount relative to IL6R-BF648/IL6R-L = 100
T13 construct: also called CD64
T13 sequence (P12314 16-292 limits assumed): as the sequence (P12314 16-292 limits assumed) above

| relative binding | Binder |
| --- | --- |
| 119 | B15 |
| 98 | B16 |
| 113 | B17 |
| 117 | B18 |
| 125 | B19 |
| 52 | B20 |
| 124 | B21 |

Target: T6, human FcγRIIa type R
Experiment: as above

| relative binding | Binder |
| --- | --- |
| 340 | B15 |
| 103 | B16 |
| 167 | B17 |
| 159 | B18 |
| 175 | B19 |
| 101 | B20 |
| 166 | B21 |

target: T7, human FcγRIIa type H; experiment: as above

| relative binding | Binder |
| --- | --- |
| 113 | B15 |
| 97 | B16 |
| 132 | B17 |
| 103 | B18 |
| 108 | B20 |
| 96 | B21 |

target: T8, human FcγRIIb; experiment: as above

| relative binding | Binder |
| --- | --- |
| 157 | B15 |
| 106 | B16 |
| 103 | B17 |
| 119 | B18 |
| 114 | B19 |
| 119 | B20 |
| 118 | B21 |
